Biological target: human inducible heat shock protein 70 (hHsp70), full-length, non-tagged (human)
Assay: BLI; biotinylated hHsp70 or DnaK immobilised on streptavidin biosensor tips, analyte in PBS (hHsp70 200-500 nM; hHsp40 20-50 nM; DnaK 200-500 nM), association 600 s, dissociation 600 s, 1:1 model

human inducible heat shock protein 70 (hHsp70), full-length, non-tagged (human), sequence (P0DMV8 whole entry E110D): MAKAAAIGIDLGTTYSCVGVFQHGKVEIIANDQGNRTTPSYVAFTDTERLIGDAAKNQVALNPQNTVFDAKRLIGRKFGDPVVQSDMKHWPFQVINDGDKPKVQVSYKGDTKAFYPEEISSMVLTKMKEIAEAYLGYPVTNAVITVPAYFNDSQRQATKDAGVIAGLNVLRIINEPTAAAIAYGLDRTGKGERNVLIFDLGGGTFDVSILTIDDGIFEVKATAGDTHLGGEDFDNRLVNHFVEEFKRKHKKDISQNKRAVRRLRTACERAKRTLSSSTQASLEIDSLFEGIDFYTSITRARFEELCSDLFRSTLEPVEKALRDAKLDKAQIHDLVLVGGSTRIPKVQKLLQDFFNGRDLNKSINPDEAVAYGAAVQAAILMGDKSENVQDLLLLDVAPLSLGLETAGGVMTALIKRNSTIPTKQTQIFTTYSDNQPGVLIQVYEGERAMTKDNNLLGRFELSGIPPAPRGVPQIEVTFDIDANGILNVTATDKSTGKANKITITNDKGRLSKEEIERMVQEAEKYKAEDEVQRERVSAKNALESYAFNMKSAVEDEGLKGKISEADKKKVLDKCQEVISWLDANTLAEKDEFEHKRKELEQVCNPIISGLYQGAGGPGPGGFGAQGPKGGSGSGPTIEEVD

human heat shock protein 40 (hHsp40) (from UniProt P25685 1-340) (natural protein)
Kd: 0.52 nM

Reference: PMC4255253
